B1: Aquaporin-2 (Mus musculus), P56402 (parent)
chain: MWELRSIAFSRAVLAEFLATLLFVFFGLGSALQWASSPPSVLQIAVAFGLGIGTLVQALGHVSGAHINPAVTVACLVGCHVSFLRAAFYVAAQLLGAVAGAAILHEITPVEIRGDLAVNALHNNATAGQAVTVELFLTMQLVLCIFASTDERRSDNLGSPALSIGFSVTLGHLLGIYFTGCSMNPARSLAPAVVTGKFDDHWVFWIGPLVGAVIGSLLYNYLLFPSTKSLQERLAVLKGLEPDTDWEEREVRRRQSVELHSPQSLPRGSKA

Variants of: B1
Settings: with hsp71_canlf HSPA1, Q7YQC6
Chain of hsp71_canlf HSPA1, Q7YQC6 (Q7YQC6 whole entry): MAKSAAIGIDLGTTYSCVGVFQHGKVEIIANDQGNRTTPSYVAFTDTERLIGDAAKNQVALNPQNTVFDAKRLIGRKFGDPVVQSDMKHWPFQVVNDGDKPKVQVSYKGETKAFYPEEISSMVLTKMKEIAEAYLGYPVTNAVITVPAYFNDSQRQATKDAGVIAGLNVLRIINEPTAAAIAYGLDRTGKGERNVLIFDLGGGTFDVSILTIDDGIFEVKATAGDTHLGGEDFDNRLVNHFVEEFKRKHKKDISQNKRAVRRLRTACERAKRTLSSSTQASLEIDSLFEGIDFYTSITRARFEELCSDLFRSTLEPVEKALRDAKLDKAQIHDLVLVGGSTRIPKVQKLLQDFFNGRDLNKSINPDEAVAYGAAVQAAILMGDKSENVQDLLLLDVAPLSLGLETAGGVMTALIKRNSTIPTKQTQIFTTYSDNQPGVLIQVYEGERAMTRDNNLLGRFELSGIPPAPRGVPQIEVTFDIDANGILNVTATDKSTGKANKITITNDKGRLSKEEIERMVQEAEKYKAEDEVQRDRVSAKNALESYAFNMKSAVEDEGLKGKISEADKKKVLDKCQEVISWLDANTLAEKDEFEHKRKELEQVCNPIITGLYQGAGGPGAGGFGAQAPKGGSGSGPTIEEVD

Variant	effect of a mutation on the interaction
S269D	decreasing interaction

Variants of: B1
Settings: with anxa2_canlf ANXA2, Q6TEQ7
Chain of anxa2_canlf ANXA2, Q6TEQ7 (Q6TEQ7 whole entry): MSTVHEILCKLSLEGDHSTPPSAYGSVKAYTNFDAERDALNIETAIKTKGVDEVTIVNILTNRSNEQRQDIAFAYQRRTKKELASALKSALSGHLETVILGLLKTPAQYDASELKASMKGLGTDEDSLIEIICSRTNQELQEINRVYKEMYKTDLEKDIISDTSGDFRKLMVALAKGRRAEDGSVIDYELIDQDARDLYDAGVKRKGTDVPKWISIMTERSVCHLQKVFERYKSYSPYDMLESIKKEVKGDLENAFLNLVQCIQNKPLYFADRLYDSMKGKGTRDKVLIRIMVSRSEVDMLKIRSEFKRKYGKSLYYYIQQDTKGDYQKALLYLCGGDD

Variant	effect of a mutation on the interaction
S256A	increasing interaction

Source: IntAct's records for PubMed 19966308
